Where two headings read alike, the source gives them in different places. *1 amine or outer side, *2 acyl side, *3 side chain or, on linkers, in order; H or OH if unused. Bridges are numbered along the chain shown (N, C = ends). Primed or numbered codes have the meaning given here. Where no end group is shown, it is not given here. [ ]: non-standard residue; d: D form. CO(CH2)2(OCH2CH2)17CO = O=C(CCOCCOCCOCCOCCOCCOCCOCCOCCOCCOCCOCCOCCOCCOCCOCCOCCOCCC(=O)[*:2])[*:1]; Met(O2) = CS(=O)(=O)CC[C@H](N)C(=O)O; hTyr = N[C@@H](CCc1ccc(O)cc1)C(=O)O; Hyp = O=C(O)[C@@H]1C[C@@H](O)CN1; hArg = N=C(N)NCCCC[C@H](N)C(=O)O; hPhe = N[C@@H](CCc1ccccc1)C(=O)O; Chg = N[C@H](C(=O)O)C1CCCCC1; Tle = CC(C)(C)[C@H](N)C(=O)O; F4aao = not defined here; Ahp′ = not defined here; H4Py = not defined here; Atb = not defined here; F4C = not defined here; Yph = not defined here
B1: Peptide complex Dimer Structure No. 50 (peptide)
peptide: {CH2CO}-WWVDVKDDLYFVDCG-NH2
modifications: thioether N-14; also: homodimer: Lys6 joined to Lys6 of second copy by OCOPEG17OCO (Linker Structure No. 6)
B2: Peptide complex Dimer Structure No. 26 (peptide)
peptide: {CH2CO}-WW[Tle]QVKDDLYF[hTyr]DCG-NH2
modifications: thioether N-14; not fully specified (residue 6); also: homodimer: Lys6 joined to Lys6 of second copy by cPEG17c (Linker Structure No. 4)
B3: Peptide complex Dimer Structure No. 44 (peptide)
peptide: {CH2CO}-WW[Tle]DVKDDLYF[hTyr]DCG-NH2
modifications: thioether N-14; also: homodimer: Lys6 joined to Lys6 of second copy by cPEG17c (Linker Structure No. 4)
B4: Peptide complex Dimer Structure No. 56 (peptide)
peptide: {CH2CO}-WW[hTyr]DVKDD[Atb]Y[F4G]VDCG-NH2
modifications: thioether N-14; reading uncertain; also: dimer: Lys6 joined to Lys6 of second copy by OCOPEG13OCO (Linker Structure No. 5)
B5: Peptide complex Dimer Structure No. 57 (peptide)
peptide: {CH2CO}-WW[hTyr]DVKDD[Atb]Y[F4G][hTyr]DCG-NH2
modifications: thioether N-14; reading uncertain; also: dimer: Lys6 joined to Lys6 of second copy by OCOPEG13OCO (Linker Structure No. 5)
B6: Peptide complex Dimer Structure No. 40 (peptide)
peptide: {CH2CO}-WW[hTyr]DVKDDLY[F4G]VDCG-NH2
modifications: thioether N-14; also: homodimer: Lys6 joined to Lys6 of second copy by OCOPEG13OCO (Linker Structure No. 5)
B7: Peptide complex Dimer Structure No. 38 (peptide)
peptide: {CH2CO}-WWV[Met(O2)]VKDDLYF[hTyr]DCG-NH2
modifications: thioether N-14; also: homodimer: Lys6 joined to Lys6 of second copy by OCOPEG13OCO (Linker Structure No. 5)
B8: Peptide complex Dimer Structure No. 12 (peptide)
peptide: {CH2CO}-WWVDVQDDLYFVDCG
modifications: thioether N-14; also: dimer: Gly15 C-terminus joined to second copy by K-cPEG17c-K
B9: Peptide complex Dimer Structure No. 48 (peptide)
peptide: {CH2CO}-WW[Tle]DVKDD[Atb]YF[hTyr]DCG-NH2
modifications: thioether N-14; reading uncertain; also: homodimer: Lys6 joined to Lys6 of second copy by cPEG17c (Linker Structure No. 4)
B10: Peptide complex Dimer Structure No. 35 (peptide)
peptide: {CH2CO}-WW[Tle]DVKDDLYF[hTyr][F4aao]CG-NH2
modifications: thioether N-14; reading uncertain; also: homodimer: Lys6 joined to Lys6 of second copy by cPEG17c (Linker Structure No. 4)
B11: Peptide complex Dimer Structure No. 4 (peptide)
peptide: {CH2CO}-WWVDV[hPhe]DDLYFVDCG
modifications: thioether N-14; also: dimer: C-terminus joined to second copy by PEG12c-K-PEG12c
B12: Peptide complex Dimer Structure No. 10 (peptide)
peptide: {CH2CO}-WWVDVQDDLYFVACG
modifications: thioether N-14; also: dimer: Gly15 C-terminus joined to second copy by PEG12c-K-PEG12c
B13: Peptide complex Dimer Structure No. 11 (peptide)
peptide: {CH2CO}-WWVDVQDDLYFVSCG
modifications: thioether N-14; also: dimer: Gly15 C-terminus joined to second copy by PEG12c-K-PEG12c
B14: Peptide complex Dimer Structure No. 54 (peptide)
peptide: {CH2CO}-WW[Tle]DVKDD[Atb]Y[F4G][hTyr][Hyp]CG-NH2
modifications: thioether N-14; reading uncertain; also: dimer: Lys6 joined to Lys6 of second copy by OCOPEG13OCO (Linker Structure No. 5)
B15: Peptide complex Dimer Structure No. 39 (peptide)
peptide: {CH2CO}-WWVDVKDDLY[Yph]V[hArg]CG-NH2
modifications: thioether N-14; reading uncertain; also: homodimer: Lys6 joined to Lys6 of second copy by OCOPEG13OCO (Linker Structure No. 5)
B16: Peptide complex Dimer Structure No. 36 (peptide)
peptide: {CH2CO}-WW[Tle]DV[Ahp′]DDLYF[hTyr]DCG
modifications: thioether N-14; not fully specified (C-terminus); reading uncertain; also: dimer: Gly15 C-terminus joined to second copy by PEG12c-K-PEG12c (Linker Structure No. 1)
B17: Peptide complex Dimer Structure No. 41 (peptide)
peptide: {CH2CO}-WWVDVKDDLY[F4G][hTyr][Hyp]CG-NH2
modifications: thioether N-14; also: homodimer: Lys6 joined to Lys6 of second copy by OCOPEG13OCO (Linker Structure No. 5)
B18: Peptide complex Dimer Structure No. 37 (peptide)
peptide: {CH2CO}-WWVDVKGVNYF[hTyr]DCG-NH2
modifications: thioether N-14; also: homodimer: Lys6 joined to Lys6 of second copy by OCOPEG13OCO (Linker Structure No. 5)
B19: Peptide complex Dimer Structure No. 55 (peptide)
peptide: {CH2CO}-WW[Tle]DVKDD[Atb]Y[F4G][hTyr]DCG-NH2
modifications: thioether N-14; reading uncertain; also: dimer: Lys6 joined to Lys6 of second copy by OCOPEG13OCO (Linker Structure No. 5)
B20: Peptide complex Dimer Structure No. 32 (peptide)
peptide: {CH2CO}-WW[Tle]DVK(CO(CH2)2(OCH2CH2)17CO)DDLYF[H4Py]DCG-NH2
modifications: thioether N-14; reading uncertain; also: dimer joined at Lys6 side chains by cPEG17c
B21: Peptide complex Dimer Structure No. 34 (peptide)
peptide: {CH2CO}-WW[Tle]DVKDDLYF[hTyr]FCG-NH2
modifications: thioether N-14; also: homodimer: Lys6 joined to Lys6 of second copy by cPEG17c (Linker Structure No. 4)
B22: Peptide complex Dimer Structure No. 28 (peptide)
peptide: {CH2CO}-WW[Tle]D[Chg]KDDLYF[hTyr]DCG-NH2
modifications: thioether N-14; not fully specified (residue 6); also: homodimer: Lys6 joined to Lys6 of second copy by cPEG17c (Linker Structure No. 4)
B23: Peptide complex Dimer Structure No. 30 (peptide)
peptide: {CH2CO}-WW[Tle]DVKDDLY[F4C][hTyr]DCG-NH2
modifications: thioether N-14; not fully specified (residue 6); reading uncertain; also: homodimer: Lys6 joined to Lys6 of second copy by cPEG17c (Linker Structure No. 4)

Columns and labels:
VEGFR-2 [1] = biological target: T1, VEGFR-2 (human, UniProt P35968 20-1356); assay: cell-based or functional assay
T1 sequence (P35968 20-1356): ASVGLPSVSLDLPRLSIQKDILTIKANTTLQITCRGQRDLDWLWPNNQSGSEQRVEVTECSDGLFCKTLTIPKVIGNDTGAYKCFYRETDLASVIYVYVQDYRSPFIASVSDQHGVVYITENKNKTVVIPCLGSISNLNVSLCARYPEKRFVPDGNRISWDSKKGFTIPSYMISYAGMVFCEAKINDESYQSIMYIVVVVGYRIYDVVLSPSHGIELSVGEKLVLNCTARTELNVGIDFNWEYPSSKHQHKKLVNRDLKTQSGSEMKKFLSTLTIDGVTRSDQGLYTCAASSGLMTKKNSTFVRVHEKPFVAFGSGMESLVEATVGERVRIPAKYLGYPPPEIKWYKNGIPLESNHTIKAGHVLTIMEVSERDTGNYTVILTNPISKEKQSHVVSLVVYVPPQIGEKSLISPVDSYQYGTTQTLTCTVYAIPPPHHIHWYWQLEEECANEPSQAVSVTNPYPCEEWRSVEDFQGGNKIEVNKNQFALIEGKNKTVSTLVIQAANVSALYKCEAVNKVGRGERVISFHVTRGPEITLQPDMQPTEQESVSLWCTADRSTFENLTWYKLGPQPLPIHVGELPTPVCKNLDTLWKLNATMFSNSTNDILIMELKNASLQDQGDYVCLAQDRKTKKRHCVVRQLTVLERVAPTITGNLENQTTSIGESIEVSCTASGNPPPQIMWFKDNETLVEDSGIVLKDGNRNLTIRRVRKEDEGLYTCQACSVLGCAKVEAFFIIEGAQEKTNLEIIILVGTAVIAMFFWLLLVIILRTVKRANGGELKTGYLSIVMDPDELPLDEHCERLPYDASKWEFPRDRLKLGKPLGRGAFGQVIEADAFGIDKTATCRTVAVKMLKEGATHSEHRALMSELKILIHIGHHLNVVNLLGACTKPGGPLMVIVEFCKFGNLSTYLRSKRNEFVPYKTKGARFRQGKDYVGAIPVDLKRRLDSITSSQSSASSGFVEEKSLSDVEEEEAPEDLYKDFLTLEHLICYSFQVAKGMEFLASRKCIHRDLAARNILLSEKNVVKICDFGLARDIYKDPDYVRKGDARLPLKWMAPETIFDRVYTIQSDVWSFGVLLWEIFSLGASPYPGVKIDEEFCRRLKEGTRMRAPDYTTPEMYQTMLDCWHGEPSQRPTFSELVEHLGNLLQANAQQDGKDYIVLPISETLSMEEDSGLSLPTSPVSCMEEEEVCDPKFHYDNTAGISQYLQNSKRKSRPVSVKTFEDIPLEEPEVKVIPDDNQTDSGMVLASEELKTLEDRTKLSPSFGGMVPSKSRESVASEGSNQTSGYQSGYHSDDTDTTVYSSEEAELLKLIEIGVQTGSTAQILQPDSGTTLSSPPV

VEGFR-2 [2] = biological target: T1, VEGFR-2; assay: cell-based or functional assay; remark: listed apart in the source

Binder	pERK Assay Results (AlphaLISA p-Erk1/2, HUVEC) (VEGFR-2 [1])	pERK Assay Results (AlphaLISA p-Erk1/2, HUVEC) (VEGFR-2 [2])
B1	≥ 50 % activity at 20 nM	–
B2	≥ 50 % activity at 100 nM	–
{CH2CO}-WWVDVQGDLYFVDCG (thioether N-14; also: dimer: C-termini joined by PEG12c-K-PEG12c linker) [Peptide complex Dimer Structure No. 7]	–	≥ 50 % activity at 100 nM
B3	≥ 50 % activity at 20 nM	–
B4	≥ 50 % activity at 20 nM	–
{CH2CO}-WWVDVQDDLY[Bph]VDCG (thioether N-14; also: dimer: C-termini joined by PEG12c-K-PEG12c linker) [Peptide complex Dimer Structure No. 8]	–	< 50 % activity at 100 nM
B5	≥ 50 % activity at 20 nM	–
B6	≥ 50 % activity at 10 nM	–
B7	≥ 50 % activity at 100 nM	–
B8	–	< 50 % activity at 100 nM
B9	≥ 50 % activity at 20 nM	–
B10	≥ 50 % activity at 10 nM	–
{CH2CO}-WWVDVQDDLYF[hPhe]DCG (thioether N-14; also: dimer: C-termini joined by PEG12c-K-PEG12c linker) [Peptide complex Dimer Structure No. 9]	–	< 50 % activity at 100 nM
B11	–	≥ 50 % activity at 10 nM
B12	–	< 50 % activity at 100 nM
B13	–	< 50 % activity at 100 nM
B14	≥ 50 % activity at 5 nM	–
B15	≥ 50 % activity at 100 nM	–
{CH2CO}-WWVDV[F4COO]DDLYFVDCG (thioether N-14; also: dimer: C-termini joined by PEG12c-K-PEG12c linker) [Peptide complex Dimer Structure No. 6]	–	≥ 50 % activity at 100 nM
B16	≥ 50 % activity at 100 nM	–
B17	≥ 50 % activity at 10 nM	–
{CH2CO}-WWVDVWDDLYFVDCG (thioether N-14; also: dimer joined at Gly15 C-termini by PEG12c-K-PEG12c) [Peptide complex Dimer Structure No. 3]	–	≥ 50 % activity at 10 nM
B18	≥ 50 % activity at 100 nM	–
B19	≥ 50 % activity at 5 nM	–
B20	≥ 50 % activity at 10 nM	–
B21	≥ 50 % activity at 10 nM	–
B22	≥ 50 % activity at 10 nM	–
B23	≥ 50 % activity at 10 nM	–

From EP4748847A1, “PEPTIDE COMPLEX HAVING VEGFR -2 AGONIST ACTIVITY” (Peptidream Inc, priority 2023, dated 2025)
